Test results: paper PMC12915084, “A dsRNA Viral Transcriptional Regulator Evades Innate Immunity by Hijacking Host CoTranscription Factor DHX9”

Key:
[1] = target: T1, σ3 WT (REOV outer capsid protein) (Mammalian orthoreovirus, UniProt P07939 1-365); assay: EMSA; no shift at any σ3 concentration tested; 5 nM R-loop; without DHX9; EMSA: 5 nM R-loop, 0.5% NP-40, 150 mM NaCl, 20 mM Tris-Cl pH 8.0, 0.5 mM EDTA, 37 °C 15 min; 6% native PAGE; conditions: protein: recombinant; tags: Flag; label: 5' Cy5.5 on RNA; three-strand R-loop, DNA duplex arms around an unpaired bubble; RNA nt 1-30 pair with ssDNA-2, 3' RNA overhang 30 nt
T1 sequence: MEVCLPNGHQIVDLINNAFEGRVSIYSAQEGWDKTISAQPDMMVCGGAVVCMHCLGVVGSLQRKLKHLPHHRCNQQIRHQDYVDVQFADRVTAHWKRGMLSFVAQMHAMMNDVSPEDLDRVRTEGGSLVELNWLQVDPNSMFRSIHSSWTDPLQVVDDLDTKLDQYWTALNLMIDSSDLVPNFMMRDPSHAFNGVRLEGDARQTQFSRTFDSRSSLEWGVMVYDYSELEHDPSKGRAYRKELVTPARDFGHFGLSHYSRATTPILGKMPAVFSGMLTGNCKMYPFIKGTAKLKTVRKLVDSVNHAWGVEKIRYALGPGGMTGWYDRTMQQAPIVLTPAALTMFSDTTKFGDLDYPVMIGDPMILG

DHX9 = DHX9 (UniProt Q08211 1-1270); assay: EMSA; shift at 20 nM DHX9; 5 nM R-loop; no ATP or Mg2+ listed in binding buffer; EMSA: 5 nM R-loop, 0.5% NP-40, 150 mM NaCl, 20 mM Tris-Cl pH 8.0, 0.5 mM EDTA, 37 °C 15 min; 6% native PAGE; conditions: protein: recombinant; tags: Flag; label: 5' Cy5.5 on RNA; three-strand R-loop, DNA duplex arms around an unpaired bubble; RNA nt 1-30 pair with ssDNA-2, 3' RNA overhang 30 nt
Chain of DHX9 (Q08211 whole entry): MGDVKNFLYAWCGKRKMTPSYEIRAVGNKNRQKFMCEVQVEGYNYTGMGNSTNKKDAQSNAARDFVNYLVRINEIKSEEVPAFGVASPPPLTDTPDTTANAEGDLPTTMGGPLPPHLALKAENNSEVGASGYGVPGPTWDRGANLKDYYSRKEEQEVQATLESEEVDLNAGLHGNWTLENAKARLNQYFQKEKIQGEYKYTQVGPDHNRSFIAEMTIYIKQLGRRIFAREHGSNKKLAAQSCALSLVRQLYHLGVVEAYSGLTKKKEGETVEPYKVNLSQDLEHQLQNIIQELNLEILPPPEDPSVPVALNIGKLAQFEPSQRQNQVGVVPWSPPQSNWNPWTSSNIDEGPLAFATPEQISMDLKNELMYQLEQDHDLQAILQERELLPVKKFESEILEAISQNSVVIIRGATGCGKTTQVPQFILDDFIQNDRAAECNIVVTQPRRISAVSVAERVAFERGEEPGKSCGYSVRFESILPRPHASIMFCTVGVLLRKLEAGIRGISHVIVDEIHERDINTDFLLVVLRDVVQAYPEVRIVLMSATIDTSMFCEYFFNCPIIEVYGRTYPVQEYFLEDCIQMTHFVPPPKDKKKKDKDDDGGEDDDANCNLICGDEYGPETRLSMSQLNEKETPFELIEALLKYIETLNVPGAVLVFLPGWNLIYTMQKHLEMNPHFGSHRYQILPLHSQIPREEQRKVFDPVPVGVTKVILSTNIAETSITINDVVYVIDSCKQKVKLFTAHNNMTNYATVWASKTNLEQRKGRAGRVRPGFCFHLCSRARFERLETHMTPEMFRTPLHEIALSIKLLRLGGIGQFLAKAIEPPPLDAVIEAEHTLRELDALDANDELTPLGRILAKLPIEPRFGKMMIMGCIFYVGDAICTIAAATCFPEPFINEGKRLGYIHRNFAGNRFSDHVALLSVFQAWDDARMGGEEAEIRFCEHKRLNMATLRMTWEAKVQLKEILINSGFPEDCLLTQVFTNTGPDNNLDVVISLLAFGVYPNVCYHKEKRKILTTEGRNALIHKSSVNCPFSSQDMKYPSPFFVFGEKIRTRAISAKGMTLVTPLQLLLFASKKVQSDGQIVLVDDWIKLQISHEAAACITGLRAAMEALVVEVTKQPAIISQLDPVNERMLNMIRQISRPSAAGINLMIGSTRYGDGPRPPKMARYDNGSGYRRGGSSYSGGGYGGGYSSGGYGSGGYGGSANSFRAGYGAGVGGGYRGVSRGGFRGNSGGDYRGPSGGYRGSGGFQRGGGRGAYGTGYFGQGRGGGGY

B1: R-loop substrate with RNA 3' overhang (mixed)
DNA 1: CATTGCATATTTAAAACATGTTGGATCCCACGTTGCATGCTGATAGCCTACTAGAGCTGTATGAATTCAAATGACCTCTTATCAAGTGAC
DNA 2: GTCACTTGATAAGAGGTCATTTGAATTCATGGCTTAGAGCTTAATTGCTGAATCTGGTGCTGGGATCCAACATGTTTTAAATATGCAATG
RNA: GCACCAGAUUCAGCAAUUAAGCUCUAAGCCGCUGACGGCUCGAUGCUGAUCGUAGCAUCG
**Q.** Which results are given for B1?
**A.** binding result [1]: no binding; binding result (DHX9): binds
